Measurements: article PMC4289673 (Proteins, 2014)

Target: the molecule itself
Experiment: crystal structure

B1: R47A hACMSD (enzyme)
chain: not shown
B1: binds.
